# Experimental data: the DeepSol protein solubility set
# Test: soluble on expression in E. coli; label from the status in PepcDB or PDB records
row,Sequence,soluble on expression in E. coli
1,SYYHHHHHHLESTSLYKKAGLKIKAVGAYSAKQPLEPMDITRREPGPNDVKIEIAYCGVCHSDLHQVRSEWAGTVYPCVPGHEIVGRVVAVGDQVEKYAPGDLVGVGCIVDSCKHCEECEDGLENYCDHMTGTYNSPTPDEPGHTLGGYSQQIVVHERYVLRIRHPQEQLAAVAPLLCAGITTYSPLRHWQAGPGKKVGVVGIGGLGHMGIKLAHAMGAHVVAFTTSEAKREAAKALGADEVVNSRNADEMAAHLKSFDFILNTVAAPHNLDDFTTLLKRDGTMTLVGAPATPHKSPEVFNLIMKRRAIAGSMIGGIPETQEMLDFCAEHGIVADIEMIRADQINEAYERMLRGDVKYRFVIDNRTLTD,soluble
2,MTSAYFGVAGGSNTGAQSAYFGVGGGPAGGGGGASKVGGGAAPPPGTSVYMGAGGGGGGGGAQSAYFAVGGAPVGGAPAAVSIGAPPPAGGGGASTMTALGGAPSGASTMTAVGGAPRGASTMTAVGGVPSGASTMTAVGGAPTGASTMTAVGGAPTGASPMTAFGGAPTGASTMTAVGGAPTGASTMTAVGGAPTGASTMTAVGGAPTGASTMTAVGGAPTGASTMTAVGGVPTGASTMTAIGGAPSGASTMTAVGGAPRGASTMTAVGGAPTGASTMTAVGAAPGGASTMTAVGGAPRGASTMTAVGAPGGGASALGAAPPAGSMSGGGGGATSGYFGVGQGVMGGGGAVGQSAYFGVGGGAAGGAKTGGGGGGGIPGQSMYMGAGGGGGAGGGATSAYFAPK,not soluble
3,MGPYFGKVSEVSSNSQTTYLPESADATQVQEQLGDFTDSESIPAIVVMVSDEPLTQQDITQLNEVVAGLSELDIVSDEVSPAIPSEDGRAVQVFVPLNPSAELTESVEKLSETLTQQTPDYVSTYVTGPAGFTADLSALEHHHHHH,not soluble
4,MSARLDAQIAFLKQADRLKSVERANVLLDLSRPENSAEHSWHLALWALVLSPFAAPDVDVDRAIRMLLLHDLVEIETGDHPIHEVTDWQAVERAERAAARKLFGLLPPDQAADFHTLWTEFDADETADARYAKMLDRCQPMFQVLCADTPRPDHVEVVRENLSSGRAAYLAEAFPEAHAHARALLERHPPVTGGFGDRLEFLAEADRLKTVLRASRLMDDSRFENSAEHSWHIMLYAWVLGEYAAAPVDIDRVLRMLLLHDLVEIDAGDNPIHGNVDHAAQEALEAAAAERLFGLLPPDQGAGLRAIWQEFETAQSADALFGKAVDRVQTPIANLENGGGSWVTYDVSLQQLVARVGTPVSRGAPGLWDWLFPQLSDCFTRLGLRLLEHHHHHH,soluble
5,MAHHHHHHMMRRVPITVSFDALDTLIQITRGLGYQYRSSYASFLLAHGIDLDATCPNATCEAVQELALKAIRDQVRAERAAWTRSANPKEMPIGGDTDEELRSFWARVLRQTYTCATLYDGAAADVVQRIEELWGDHHNEVRCFEDYVLFDQFSSTKAHSWCPEGLRTLQCLRKWNQVQMSCDESAVRPGLADTKPASDLDVFSPSSAAASPVLFLAAPPFVVSNMDPRIRGVFMQLGAFEAGESGEPPLLSRIISARDTGYAKPSPAGILTGVRDIAASYRAACQSCGACDAGVDVHRHVHVGDADADRVACERAGCHFVQCDPATGVTWGLLQAKLQELEALYGSAPLPH,not soluble
6,MAARNAGTARPGGPNRTCQFKLVLLGESAVGKSSLVLRFVKGQFHEYQESTIGAAFLTQTVCLDDATIKFEIWDTAGQERYHSLAPMYYRGAQAAIVVYDITNQESFQKAKNWVKELQRQASPNIVMALAGNKADVANKRTVEYEEANAYAEDNALLFMETSAKTSMNVNDIFMAIAKKLPIGPAQGEPTGTVDMNQPQQQQKGSCCK,not soluble
7,MSLSESAPTPRRERVIVGMSGGVDSSVSALLLLQQGYQVEGLFMKNWDEDDGTEYCTAREDLADAQAVCDRIGIKLHTANFAAEYWDNVFEHFLAEYKAGRTPNPDILCNREIKFKAFLDYALMLGADLIATGHYVRRRDRDGRTELLKGLDPNKDQSYFLHAVGGEQIARSLFPVGELEKPEVRAIAEKHGLATAKKKDSTGICFIGERRFTDFLKQYLPAQPGDIETTEGKVIGRHSGLMYHTIGQRQGLGIGGLKEAGDDPWYVLGKDLQRNVLLVGQGNDHPLLFSRALLASRIYWVNPVELERPRRLRAKVRYRQSDQDCVLEKTAEGYRAVFDEPQRAVTPGQSVVFYDGDVCLGGGVIETAEAWDFGGRPEGHHHHHH,soluble
8,SLDSPADNPVDSTASDRPVEGRDRDDEGRARNARPRDGLGRPLPYGANGVPRQPEGVVRAPEATVAEAQRLLDDGKPFHAHEVFEDAWKAGPEEERELWRGMAQLAVGLTHSARGNATGGARLLRRGAGAVTAWAASEAGRERPYGMDLGAVAGWARELAGEVEGGGSVDAAARAPRLRG,not soluble
9,MGSSHHHHHHSSGLVPRGSMSTSWSDRLQNAADMPANMDKHALKKYRREAYHRVFVNRSLAMEKIKCFGFDMDYTLAVYKSPEYESLGFELTVERLVSIGYPQELLSFAYDSTFPTRGLVFDTLYGNLLKVDAYGNLLVCAHGFNFIRGPETREQYPNKFIQRDDTERFYILNTLFNLPETYLLACLVDFFTNCPRYTSCETGFKDGDLFMSYRSMFQDVRDAVDWVHYKGSLKEKTVENLEKYVVKDGKLPLLLSRMKEVGKVFLATNSDYKYTDKIMTYLFDFPHGPKPGSSHRPWQSYFDLILVDARKPLFFGEGTVLRQVDTKTGKLKIGTYTGPLQHGIVYSGGSSDTICDLLGAKGKDILYIGDHIFGDILKSKKRQGWRTFLVIPELAQELHVWTDKSSLFEELQSLDIFLAELYKHLDSSSNERPDISSIQRRIKKVTHDMDMCYGMMGSLFRSGSRQTLFASQVMRYADLYAASFINLLYYPFSYLFRAAHVLMPHESTVEHTHVDINEMESPLATRNRTSVDFKDTDYKRHQLTRSISEIKPPNL,soluble
10,MNNREIVQKLWNLCNVLRDDGITYHQYVTELTYLLFLKMMKETGQEYIIPEPYRWDVLAKKDGIELKTYYQQLLMALGQEENELLRQIYTDATSNIREPKNLEKIIRTIDALDWYNAKEEGLGALYEGLLEKNASELKSGAGQYFTPRVLIDVIVELVDPKPGERCHDPAAGTFGFMIAASRHVRAKTDDYFDLSEEEIRFQKYEAFSGVELVRDTHRLAVMNALLHDVHGDILLGDTLSPLGEQLKGYDVILTNPPFGTKKGGERATRTDFTFMTSNKQLNFLQHIYRALRPNGKARAAVVVPDNVLFEGGVGADIRRDLMDKCNVHTILRLPTGIFYAQGVKTNVLFFTRGETDTGNTKEVWVYDLRTNMPSFGKRNPLTKDHFAGFMKAYTAEDRHQVDDERWNVFTRDDIAKKGDSLDIGLIADESLSVYDNLPDPIDSAEEAVEKLELAISLLNEVIAELKAAEHPPRYEPAKTEMLHVAERLEVSER,not soluble
11,MRGSHHHHHHGSAHGLTDDMTMHFRMEGCVDGHKFVIEGNGNGNPFKGKQFINLCVIEGGPLPFSEDILSAAFDYGNRLFTEYPEGIVDYFKNSCPAGYTWHRSFRFEDGAVCICSADITVNVRENCIYHESTFYGVNFPADGPVMKKMTTNWEPSCEKIIPINSQKILKGDVSMYLLLKDGGRYRCQFDTIYKAKTEPKEMPDWHFIQHKLNREDRSDAKNQKWQLIEHAIASRSALP,soluble
12,GPHMVIRAEKMEAVTHLAASISHEIRNPLTAARGFIQLIEEQPLAADKRRQYARIAIEELDRAEAIITDYLTFAKPAPETPEKLNVKLEIERVIDILRPLANMSCVDIQATLAPFSVIGEREKFRQCLLNVMKNAIEAMPNGGTLQVYVSIDNGRVLIRIADTGVGMTKEQLERLGEPYFTTKGVKGTGLGMMVVYRIIESMNGTIRIESEIHKGTTVSIYLPLASSPSSSTISDKEKQLFAAL,soluble
13,MGSDKIHHHHHHEIMTRENNDQETLKLIQENKLQAEGNIFANVSALKDQNKRFQDECHSEKKQFGIKVEETTAQNNDEVLKESAQTNHIKLGNQQNKLTHESRIMALKEGNTVTKIHVGQAQEKDRKETNFIAAVNRMIQAGRDLPETVDSLEGHTLKLRYGSDASALESDIGLCEIIVSSINRKISKLQDSCIDLSNYAIADHRMVQEMQKNALGINESVRRIQSHLTQFRVSLSDNPITNSMELYKKVQTESHSLSTKINSMPVVTETNHAVAYLRKQRETLALNLPTVA,not soluble
14,MGSDKIHHHHHHMAANNTITFYDLALSTGATISPFVWATKYALKHKGFDLDVVPGGFTGILERTGGKTERLPAIVDDGEFVLDSWGIVEYLDAKYPDRPVLIPHESVAATLKALDNWFWNAAVGPWMFCFCQDYRDLSLPQDHEYVTHSREKMLGRKLEEVQAGREERLPKISAALEPLRAALAQHQWLGGSSPNYADYRIMGGILFTASVCKTPVLANDDPLRDWIERCLDLYGGLGRHPGLFPLFGLEQREGDPDLFNRAAGQGGIYKRNTGPESTRAETQRITEGMKK,not soluble
15,REQFGRDVMVVVDLSGSMAEKDFTSTNGLKISRLDAVKKVLNDFVKTRKGDRLGLILFGDAAFVQTPFTADHKVWLDLLNQTHVEMAGKSTHLGDAIGLTIKRFEDSNNSQPLSTTSREKVAIILTDGNDTDSYVPPMDAAKVAKVKGVRIHMIAIGDPQTVGEQALDMDTINTIADASGGQAFQALNQDELINAYAEISKLEPQLYQSTTYRT,not soluble
16,MGTMVFVNFPVADVQRSTAFYEKLGFKKNEEFSTEEASSMMWDDQFWIMLLNHDFYGKFIQEKQIIDAQTTSGALISFSLESAEAVKQFGETAKANGGNCYRVDMGIPEEQMYGLEVQDLDGNSLEPVWMKM,not soluble
17,MGSDKIHHHHHHMTSTPGISDSLLSSMNGSGANNNTSAISETQDRFMKLLIAQMKNQDPLNPMDNAEVTSQMAQLSTVTGIEKMNASLSTFISSMQATQALQASSLIGNTVLVEGNSTYLAPAETEGESAAYLGVELPIGADKLTVNIKNGAGNVVKTITVTNQPAGISSLGWNGYGDDGTKLPDGRYTIEATATTGNSSVASTPLSYEQVMSVSTGSDGVKLNLSNLAAITTDQIKQIF,not soluble
18,GMEMTKVTGKFDVKLTPENAYATGVGGVNLGRMALDKTFYGELEARSQGEMLSAMTAVKGSAGYVAIEQVVGKLCGRQGSFVLQHFGIMTDGQNRLHLEVVPHSGAGELTGLYGTMAISIENGQHFYEFSFCFEPASEVEG,soluble
19,MIELKPPDVMPNGNIGTPSQYFLEQIRLCRLPTTVISKLGIQTQKRKKKFGEVDFQYEKTDSCKAEKIKCETIPGVEDELEDPTERVRMNQNPEDNDDGKDDDNDQCEEWERHEALHEDVTEQDRAKPRKYEEEMEVTWEKGGPGLVWYTDKNYWDEREKGTDCDWAWADDWDVDYSVYYEGKSAGDMDAKAAIEMRNDDLMRSGKLEQSAFTKKRNPHNLGTTRKRRNSDGGGSSEKASENLQKGIGGSMLAKMGWKPGTGLGKNEQGRVVPVAVYVEEDGQSSKEKTGFGYRGEKLSRVVQKKTIRHVIASAFDSVTDREQCEDKQSEEELHGEILFRRSEVTKMNKFQVLKLQFPKRNIQKTKTFQNFGKLSKCTQLYRFFLMN,not soluble
20,RQGCEARRAHEHLIRLLLEQGKCPEDGWDESTLELFLHELAVMDSNNFLGNCGVGEREGRVASALVARRHYRFIHGIGRSGDISAVQPKAAGSSLLNKITNSLVLNVIKLAGVHSVASCFVVPMATGMSLTLCFLTLRHKRPKAKYIIWPRIDQKSCFKSMVTAGFEPVVIENVLEGDELRTDLKAVEAKIQELGPEHILCLHSTTACFAPRVPDRLEELAVICANYDIPHVVNNAYGLQSSKCMHLIQQGARVGRIDAFVQSLDKNFMVPVGGAIIAGFNEPFIQDISKMYPGRASASPSLDVLITLLSLGCSGYRKLLKERKEMFVYLSTQLKKLAEAHNERLLQTPHNPISLAMTLKTIDGHHDKAVTQLGSMLFTRQVSGARAVPLGNVQTVSGHTFRGFMSHADNYPCAYLNAAAAIGMKMQDVDLFIKRLDKCLNIVRKEQTRA,soluble
